{"source": "paper PMC6627233", "about": "(The EMBO Journal, 2019)", "molecular_target": "Flag-tagged MAVS (UniProt Q7Z434 1-540)", "sequence (Q7Z434 whole entry)": "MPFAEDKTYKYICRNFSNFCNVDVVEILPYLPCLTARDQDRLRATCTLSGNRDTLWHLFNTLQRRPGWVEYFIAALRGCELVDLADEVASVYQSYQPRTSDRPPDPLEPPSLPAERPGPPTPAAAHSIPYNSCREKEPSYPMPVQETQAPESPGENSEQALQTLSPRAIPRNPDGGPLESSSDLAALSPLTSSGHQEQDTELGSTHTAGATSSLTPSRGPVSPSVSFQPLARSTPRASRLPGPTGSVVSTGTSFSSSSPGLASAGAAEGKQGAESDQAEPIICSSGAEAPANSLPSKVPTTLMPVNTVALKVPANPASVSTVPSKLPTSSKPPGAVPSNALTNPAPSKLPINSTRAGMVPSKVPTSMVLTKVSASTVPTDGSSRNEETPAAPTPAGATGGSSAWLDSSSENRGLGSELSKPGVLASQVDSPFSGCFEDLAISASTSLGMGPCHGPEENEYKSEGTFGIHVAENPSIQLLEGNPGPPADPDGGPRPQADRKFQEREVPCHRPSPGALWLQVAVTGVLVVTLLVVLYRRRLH", "assay": "far-Western, overlay or dot blot", "data": [{"binder": "GST-tagged RNF34 (natural protein) MKAGATSMWASCCGLLNEVMGTGAVRGQQSAFAGATGPFRFTPNPEFSTYPPAATEGPNIVCKACGLSFSVFRKKHVCCDCKKDFCSVCSVLQENLRRCSTCHLLQETAFQRPQLMRLKVKDLRQYLILRNIPIDTCREKEDLVDLVLCHHGLGSEDDMDTSSLNSSRSQTSSFFTRSFFSNYTAPSATMSSFQGELMDGDQTSRSGVPAQVQSEITSANTEDDDDDDDEDDDDEEENAEDRNPGLSKERVRASLSDLSSLDDVEGMSVRQLKEILARNFVNYSGCCEKWELVEKVNRLYKENEENQKSYGERLQLQDEEDDSLCRICMDAVIDCVLLECGHMVTCTKCGKRMSECPICRQYVVRAVHVFKS", "values": [{"measurement": "binding result", "result": "binds"}]}]}
